Target: Wild type IRF5 (222-467) (human) (UniProt Q13568)
Test: TR-FRET

Chain of Wild type IRF5 (222-467) (Q13568 232-477): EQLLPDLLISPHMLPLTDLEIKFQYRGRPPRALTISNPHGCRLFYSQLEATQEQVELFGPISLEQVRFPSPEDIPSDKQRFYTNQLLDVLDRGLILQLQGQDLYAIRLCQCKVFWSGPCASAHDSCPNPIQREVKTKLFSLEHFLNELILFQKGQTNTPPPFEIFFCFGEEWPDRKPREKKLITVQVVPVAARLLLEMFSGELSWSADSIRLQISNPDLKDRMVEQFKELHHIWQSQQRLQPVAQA

Kd [nM]	Substance
4210	Wild type IRF5 (222-467) (from UniProt Q13568 232-477)
1580	IRF5(222-467, S430D), S430D phosphomimetic construct of IRF5 (222-467) (from UniProt Q13568 222-467)

Source: patent publication US20160009772A1, “CELL PENETRATING PEPTIDES WHICH BIND IRF5” (priority 2012, published 2016)
